From the supplement of paper PMC11780869

Tested on: Bacillus subtilis
Experiment: cleaved RNA product abundance (RNA/gDNA barcode ratio) relative to median wild-type variant (ratio to wild type); higher = more accumulation of the downstream cleavage product
Details: experiment (reporter, strain, medium): exp 8a: truncated aprE reporter, strain BJT201 with 2% xylose (RNase J1 expressed); cleavage site: glnRA (positions -5 to +31 mutated)
Procedure, shortened: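 Cleaved product abundance is expressed as the RNA:gDNA barcode ratio per construct, scaled to the median construct carrying the unmutated site. The constructs were barcoded, mutagenized RNase Y cleavage-site windows in truncated aprE or tetM reporter mRNAs integrated into the B. subtilis chromosome. Cultures grew in LB at 37°C from OD600 0.0003 to 0.3 before cleaved RNA was gel-selected and barcode-sequenced.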

Sequence | cleaved RNA product abundance
CGACATGTCCCGCTTCTTTCATTATTCCGTTAGCAACTGTTTTGCTGTATACATTTACCTTTTAAGAGGAGGAAT | 0.298
CGACATGTCCCGCTTCTTTCATTATTCCGTTAGCAACTGTTTTGCTTTATACATTTACCTTTTAAGAGGAGGAAT | 0.401
CGACATGTCCCGCTTCTTTCATTATTCCGTTAGCAACTGTTTTGGTATATACATTTACCTTTTAAGAGGAGGAAT | 0.304
CGACATGTCCCGCTTCTTTCATTATTCCGTTAGCAACTGTTTTGTTATATACATTTACCTTTTAAGAGGAGGAAT | 0.541
CGACATGTCCCGCTTCTTTCATTATTCCGTTAGCAACTGTTTTTCTATATACATTTACCTTTTAAGAGGAGGAAT | 0.62
CGACATGTCCCGCTTCTTTCATTATTCCGTTAGCAACTTTTTTGCTATATACATTTACCGTTTAAGAGGAGGAAT | 2.31
CGACATGTCCCGCTTCTTTCATTATTCCGTTAGCAACTTTTTTGCTATATACATTTACCTTTTAAGAGGAGGAAT | 2.24
CGACATGTCCCGCTTCTTTCATTATTCCGTTAGCAACTTTTTTGCTATATACTTTTACCTTTTAAGAGGAGGAAT | 0.558
CGACATGTCCCGCTTCTTTCATTATTCCGTTAGCAAGTGTTTTGCTATATACATTTACCTTTTAAGAGGAGGAAT | 1.46
CGACATGTCCCGCTTCTTTCATTATTCCGTTAGCAATTGTTATGGTATATACAATTATCTTTTAAGAGGAGGAAT | 0.256
CGACATGTCCCGCTTCTTTCATTATTCCGTTAGCAATTGTTTTGCTATATACATTTACCTTTTAAGAGGAGGAAT | 1.83
CGACATGTCCCGCTTCTTTCATTATTCCGTTAGCACCTGTTTTGCTATATACATTTACCTTTTAAGAGGAGGAAT | 1.18
CGACATGTCCCGCTTCTTTCATTATTCCGTTAGCAGCTGTTTTGCTATATACATTTACCTTTTAAGAGGAGGAAT | 1.16
CGACATGTCCCGCTTCTTTCATTATTCCGTTAGCATCTGTTTTGCTATATACATTTACCTTTTAAGAGGAGGAAT | 1.34
CGACATGTCCCGCTTCTTTCATTATTCCGTTAGCCACTGTTTTGCTATATACATTTACCTTTTAAGAGGAGGAAT | 0.595
CGACATGTCCCGCTTCTTTCATTATTCCGTTAGCGACTGTTTTGCTATATACATTTACCTTTTAAGAGGAGGAAT | 0.759
CGACATGTCCCGCTTCTTTCATTATTCCGTTAGCTACTGTTTTGCTATATACATTTACCTTTTAAGAGGAGGAAT | 0.764
CGACATGTCCCGCTTCTTTCATTATTCCGTTAGGAACTGTTTTGCTATATACATTTACCTTTTAAGAGGAGGAAT | 0.44
CGACATGTCCCGCTTCTTTCATTATTCCGTTAGTAACTGTTTTGCTATATACATTTACCTTTTAAGAGGAGGAAT | 0.651
CGACATGTCCCGCTTCTTTCATTATTCCGTTATCAACTGTTTTGATATATACATTTACCTTTTAAGAGGAGGAAT | 0.385

Sequence | cleaved RNA product abundance
CGACATGTCCCGCTTCTTTCATTATTCCGTTATCAACTGTTTTGCTATACACATTTACCTTTTAAGAGGAGGAAT | 0.188
CGACATGTCCCGCTTCTTTCATTATTCCGTTATCAACTGTTTTGCTATATACATTTACCTTTTAAGAGGAGGAAT | 0.265
CGACATGTCCCGCTTCTTTCATTATTCCGTTCGCAACTGTTTTGCTATATACATTTACCTTTTAAGAGGAGGAAT | 0.283
CGACATGTCCCGCTTCTTTCATTATTCCGTTGGCAACTGTTTTGCTATATACATTTACCTTTTAAGAGGAGGAAT | 0.851
CGACATGTCCCGCTTCTTTCATTATTCCGTTTGCAACTGTTTTGCTATATACATTTACCATTTAAGAGGAGGAAT | 0.356
CGACATGTCCCGCTTCTTTCATTATTCCGTTTGCAACTGTTTTGCTATATACATTTACCTTTTAAGAGGAGGAAT | 0.543
CGACATGTCCCGCTTCTTTCATTATTCCGTTTTCAACTGTTTTGCTATATACATTTACCTTTTAAGAGGAGGAAT | 0.361
CGACATGTCCCGCTTCTTTCATTATTCCTTAAACAACTGTTTTGTAATATACATTATACCTTTAAGAGGAGGAAT | 0.242
CGACATGTCCCGCTTCTTTCATTATTCCTTTACCAACAGTTTTGCTATATACATTTACCTTTTAAGAGGAGGAAT | 0.112
CGACATGTCCCGCTTCTTTCATTATTCCTTTACCAACTTTTTTGCTATATATATATACCTTTTAAGAGGAGGAAT | 0.182
CGACATGTCCCGCTTCTTTCATTATTCCTTTAGCAACTGTTTTGATATATACATTTACCTTTTAAGAGGAGGAAT | 0.465
CGACATGTCCCGCTTCTTTCATTATTCCTTTAGCAACTGTTTTGCTATATACATTTACCTTTTAAGAGGAGGAAT | 1.04
CGACATGTCCCGCTTCTTTCATTATTCGGTTAGCAACTGTTTTGCTATATACATTTACCTTTTAAGAGGAGGAAT | 1.73
CGACATGTCCCGCTTCTTTCATTATTCTGTTAGCAACTGTTTAGCTATATACATTTACCTTTTAAGAGGAGGAAT | 0.759
CGACATGTCCCGCTTCTTTCATTATTCTGTTAGCAACTGTTTTGCTATAAACATTTACCTTTTAAGAGGAGGAAT | 0.834
CGACATGTCCCGCTTCTTTCATTATTCTGTTAGCAACTGTTTTGCTATATACAGTTACCTTTTAAGAGGAGGAAT | 0.717
CGACATGTCCCGCTTCTTTCATTATTCTGTTAGCAACTGTTTTGCTATATACATTTACCTTTTAAGAGGAGGAAT | 1.94
CGACATGTCCCGCTTCTTTCATTATTGCGTTAGCAACTGTTTTGCTATATACATTTACCTTTTAAGAGGAGGAAT | 1.54
CGACATGTCCCGCTTCTTTCATTATTTCGTTAGCAACTGTTTTGCTATATACATTTACCTTTTAAGAGGAGGAAT | 1.59
